# Paper PMC4309839, “Functional classification and biochemical characterization of a novel rho class glutathione S-transferase in Synechocystis PCC 6803” (FEBS Open Bio, 2014)
# System: O=C(O)C(Cl)Cl
# Test: purified protein
# Type: biochemical, Synechocystis sp. PCC 6803
# Settings: 1 mM GSH, 0.05-1 mM DCA, 100 mM phosphate pH 7.4, 37 °C
substance,measurement,value
sll1545 (Synechocystis sp. PCC 6803 substr. Kazusa),Km,140 ± 20 µM
same,Vmax,11.8 µmol/min
same,kcat,82.17 ± 0.23 s⁻¹
same,kcat/Km,574600 ± 990 M⁻¹ s⁻¹
